Laboratory results reported in patent US9309288B2, “Selective αvβ3 receptor peptide antagonist for therapeutic and diagnostic applications” (ADVANCED ACCELERATOR APPLICATIONS, priority 2005, dated 2016).

Target: αvβ3 (Homo sapiens, UniProt P05106+P06756)
Assay: Cell adhesion assay, αvβ3 overexpressing K562 cells (Kαvβ3) on vitronectin
Format: cell-based
Parameters: expressed in transfected cells; host or cells: K562 (human erythroleukemia), gift of Dr. S. D. Blystone
Conditions: 10 μM peptide
Procedure: Cell Adhesion and Competitive Assay: Human erythroleukemia K562 cells, stably cotransfected with cDNA of αv or αIIb subunit and β3 or β5 subunits, were kindly provided by Dr. S. D. Blystone (SUNY Upstate Medical University, Syracuse, N.Y.). Cells were maintained in Iscove's Modified Dubecco's Medium (IMDM) supplemented with 10% heat-inactivated fetal bovine serum, 100 IU/ml penicillin, 50 μg/mL streptomycin and 500 μg/mL G418 in a humidified incubator with 5% CO2 at 37° C. […] Cells were used to determine affinity for αvβ3 and cross-reactivity with αvβ5 and αIIbβ3 integrin.
Briefly, 24-well flat-bottom plates were incubated overnight with 5 μg/mL vitronectin. The pre-coated plates were rinsed with PBS, incubated for 1 h at 23° C. with 1% heat-denatured bovine serum albumin, and rinsed again. Then, αvβ3 overexpressing K562 cells were incubated with various concentrations of cyclic RGD peptides or diluents for 1 h at 4° C. Peptide-treated cells (0.2-0.5×106/100 μL/well) were seeded onto pre-coated plates and allowed to adhere for 1 h at 37° C. in 5% CO2. Non-adherent cells were removed with gentle washing, whereas adherent cells were detached by trypsinization and counted. Three different adhesion assays were performed in duplicates.
All synthesized peptides were tested for their ability to inhibit cell adhesion to vitronectin. […]

Chain of αvβ3 (P06756 31-889 limits assumed): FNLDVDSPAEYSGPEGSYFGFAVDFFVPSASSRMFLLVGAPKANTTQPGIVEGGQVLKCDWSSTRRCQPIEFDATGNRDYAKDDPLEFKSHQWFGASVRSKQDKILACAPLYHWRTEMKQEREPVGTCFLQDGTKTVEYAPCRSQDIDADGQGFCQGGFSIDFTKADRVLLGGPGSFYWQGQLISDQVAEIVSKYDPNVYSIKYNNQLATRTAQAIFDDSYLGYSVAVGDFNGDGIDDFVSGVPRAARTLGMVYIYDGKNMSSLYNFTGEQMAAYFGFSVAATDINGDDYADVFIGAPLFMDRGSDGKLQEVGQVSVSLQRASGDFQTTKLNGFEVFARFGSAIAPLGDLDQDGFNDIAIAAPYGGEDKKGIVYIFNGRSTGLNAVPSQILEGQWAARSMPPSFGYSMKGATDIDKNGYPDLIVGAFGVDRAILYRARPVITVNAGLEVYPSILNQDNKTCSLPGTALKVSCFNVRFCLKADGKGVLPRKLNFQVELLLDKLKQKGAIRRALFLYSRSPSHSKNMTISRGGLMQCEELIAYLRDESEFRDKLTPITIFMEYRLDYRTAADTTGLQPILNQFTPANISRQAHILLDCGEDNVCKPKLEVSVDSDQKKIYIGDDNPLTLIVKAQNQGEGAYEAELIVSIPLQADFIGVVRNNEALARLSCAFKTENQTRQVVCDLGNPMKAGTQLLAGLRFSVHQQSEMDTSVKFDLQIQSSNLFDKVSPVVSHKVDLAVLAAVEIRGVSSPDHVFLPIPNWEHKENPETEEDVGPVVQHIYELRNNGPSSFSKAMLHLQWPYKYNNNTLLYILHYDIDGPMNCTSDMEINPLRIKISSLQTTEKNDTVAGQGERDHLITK
Chain of αvβ3 (P06756 891-1048 partner limits assumed): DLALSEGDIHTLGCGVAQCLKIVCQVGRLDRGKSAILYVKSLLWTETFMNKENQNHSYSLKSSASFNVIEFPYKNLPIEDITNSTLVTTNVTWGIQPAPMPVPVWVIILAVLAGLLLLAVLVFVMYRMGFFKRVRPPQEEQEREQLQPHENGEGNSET
Chain of αvβ3 (P05106 27-788): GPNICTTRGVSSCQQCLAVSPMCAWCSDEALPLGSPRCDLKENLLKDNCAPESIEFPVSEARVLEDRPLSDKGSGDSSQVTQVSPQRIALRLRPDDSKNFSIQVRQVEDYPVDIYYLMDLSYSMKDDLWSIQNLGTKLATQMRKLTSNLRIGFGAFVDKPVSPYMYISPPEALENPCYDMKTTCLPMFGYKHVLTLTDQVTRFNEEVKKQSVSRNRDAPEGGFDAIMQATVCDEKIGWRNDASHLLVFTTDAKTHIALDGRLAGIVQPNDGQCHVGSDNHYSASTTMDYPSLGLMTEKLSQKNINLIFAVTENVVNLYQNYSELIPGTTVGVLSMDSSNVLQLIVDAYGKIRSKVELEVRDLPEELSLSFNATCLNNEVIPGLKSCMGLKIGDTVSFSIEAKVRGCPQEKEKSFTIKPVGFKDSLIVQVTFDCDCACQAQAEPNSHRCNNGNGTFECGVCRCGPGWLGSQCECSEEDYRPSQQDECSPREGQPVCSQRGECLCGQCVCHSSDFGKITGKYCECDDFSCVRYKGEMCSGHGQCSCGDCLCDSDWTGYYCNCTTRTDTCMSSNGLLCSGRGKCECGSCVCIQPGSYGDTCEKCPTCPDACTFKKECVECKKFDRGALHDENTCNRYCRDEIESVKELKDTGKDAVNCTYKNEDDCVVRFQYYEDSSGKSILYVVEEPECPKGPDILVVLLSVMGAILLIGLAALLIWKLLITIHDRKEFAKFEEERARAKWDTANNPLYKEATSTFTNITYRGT

Substance	cell adhesion remaining as compared to untreated control cells
RNPHKGPAT [echi 11-19]	97.5%
echi6-19: fragment of the RGDechi sequence (SEQ ID NO: 2) (MDDPGRNPHKGPAT)	99.0%
